Test results as given in the supplement of paper PMC9112550, “Optimization of the antimicrobial peptide Bac7 by deep mutational scanning” (BMC Biology, 2022).

System: Escherichia coli TOP10
Assay: shrunken log2 fold change of peptide-encoding DNA abundance (4.5 h post-induction vs induction); higher = less antimicrobial activity (less host growth inhibition)
Details: time post-induction: 4.5 h; library: site-saturation at positions 5, 18, 19, 20
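Further: peptides expressed intracellularly from a pBAD plasmid library in pooled LB shake-flask culture, induced with 0.3% L-arabinose, DNA abundance read by NGS, three biological replicates, DESeq2 with apeglm shrinkage.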

| Sequence | shrunken log2 fold change |
| --- | --- |
| RRIRQRPPRLPRPRPRPKNEPRP | -0.136 |
| RRIRNRPPRLPRPRPRPVNKPRP | -0.19 |
| RRIRERPPRLPRPRPRPLNEPRP | -0.13 |
| RRIRIRPPRLPRPRPRPRNAPRP | 0.0687 |
| RRIRNRPPRLPRPRPRPSKDPRP | -0.285 |
| RRIRQRPPRLPRPRPRPQITPRP | -0.337 |
| RRIRNRPPRLPRPRPRPKSKPRP | 0.0844 |
| RRIRIRPPRLPRPRPRPPSRPRP | 0.231 |
| RRIRIRPPRLPRPRPRPDEFPRP | 0.0764 |
| RRIRFRPPRLPRPRPRPRATPRP | 0.691 |
| RRIRYRPPRLPRPRPRPSRCPRP | -0.154 |
| RRIRVRPPRLPRPRPRPDMAPRP | 0.00912 |
| RRIRERPPRLPRPRPRPKLAPRP | 0.00329 |
| RRIRHRPPRLPRPRPRPIYYPRP | -0.32 |
| RRIRIRPPRLPRPRPRPCLGPRP | -0.157 |
| RRIRARPPRLPRPRPRPHINPRP | -0.325 |
| RRIRLRPPRLPRPRPRPSFQPRP | -0.514 |
| RRIRFRPPRLPRPRPRPLEPPRP | -0.199 |
| RRIRLRPPRLPRPRPRPTSAPRP | 0.659 |
| RRIRWRPPRLPRPRPRPWTNPRP | 0.0442 |
| RRIRRRPPRLPRPRPRPHGSPRP | -0.0609 |
| RRIRKRPPRLPRPRPRPFLFPRP | -0.0622 |
| RRIRERPPRLPRPRPRPIGSPRP | -0.587 |
| RRIRTRPPRLPRPRPRPHHWPRP | -0.0973 |
| RRIRKRPPRLPRPRPRPAWVPRP | 0.483 |

| Sequence | shrunken log2 fold change |
| --- | --- |
| RRIRWRPPRLPRPRPRPWSIPRP | -0.46 |
| RRIRARPPRLPRPRPRPVGNPRP | 0.0787 |
| RRIRHRPPRLPRPRPRPHGVPRP | 0.00355 |
| RRIRGRPPRLPRPRPRPMTCPRP | 0.133 |
| RRIRPRPPRLPRPRPRPVCRPRP | -0.0794 |
| RRIRPRPPRLPRPRPRPSGWPRP | 0.57 |
| RRIRDRPPRLPRPRPRPLDEPRP | 0.034 |
| RRIRYRPPRLPRPRPRPFKIPRP | 0.0602 |
| RRIRNRPPRLPRPRPRPCKIPRP | -0.00963 |
| RRIRTRPPRLPRPRPRPMKPPRP | -0.0805 |
| RRIRERPPRLPRPRPRPQRPPRP | -0.0471 |
| RRIRNRPPRLPRPRPRPRGCPRP | 0.366 |
| RRIRKRPPRLPRPRPRPGDFPRP | 0.18 |
| RRIRVRPPRLPRPRPRPEAWPRP | 0.181 |
| RRIRMRPPRLPRPRPRPGNDPRP | 1.19 |
| RRIRGRPPRLPRPRPRPFRVPRP | -0.149 |
| RRIRNRPPRLPRPRPRPHQIPRP | -0.247 |
| RRIRHRPPRLPRPRPRPRIHPRP | -0.473 |
| RRIRRRPPRLPRPRPRPYELPRP | -0.297 |
| RRIRWRPPRLPRPRPRPTHPPRP | 0.709 |
| RRIRNRPPRLPRPRPRPKCSPRP | 0.0607 |
| RRIRIRPPRLPRPRPRPVPQPRP | 0.224 |
| RRIRWRPPRLPRPRPRPNKAPRP | -0.00104 |
| RRIRLRPPRLPRPRPRPSDKPRP | -0.179 |
| RRIRYRPPRLPRPRPRPKPDPRP | 0.0117 |

| Sequence | shrunken log2 fold change |
| --- | --- |
| RRIRPRPPRLPRPRPRPTETPRP | 0.132 |
| RRIRQRPPRLPRPRPRPQMFPRP | 0.00489 |
| RRIRMRPPRLPRPRPRPVATPRP | 1.64 |
| RRIRSRPPRLPRPRPRPWLRPRP | -0.241 |
| RRIRERPPRLPRPRPRPRIVPRP | -0.0184 |
| RRIRWRPPRLPRPRPRPWCIPRP | -0.225 |
| RRIRPRPPRLPRPRPRPSRKPRP | 0.0349 |
| RRIRNRPPRLPRPRPRPPHKPRP | -0.136 |
| RRIRNRPPRLPRPRPRPKSLPRP | -0.433 |
| RRIRPRPPRLPRPRPRPIHMPRP | -0.23 |
| RRIRHRPPRLPRPRPRPGEMPRP | 0.257 |
| RRIRCRPPRLPRPRPRPIHYPRP | -0.95 |
| RRIRERPPRLPRPRPRPIYKPRP | -0.305 |
| RRIRVRPPRLPRPRPRPWMDPRP | 0.0171 |
| RRIRVRPPRLPRPRPRPHYLPRP | 0.00696 |
| RRIRWRPPRLPRPRPRPFVVPRP | -0.242 |
| RRIRYRPPRLPRPRPRPFHCPRP | -0.0983 |
| RRIRKRPPRLPRPRPRPCEAPRP | 0.277 |
| RRIRDRPPRLPRPRPRPVREPRP | 0.929 |
| RRIRFRPPRLPRPRPRPIIEPRP | -0.747 |
| RRIRIRPPRLPRPRPRPHWVPRP | -0.0146 |
| RRIRERPPRLPRPRPRPDLYPRP | -0.0156 |
| RRIRGRPPRLPRPRPRPWENPRP | 1.02 |
| RRIRWRPPRLPRPRPRPAYCPRP | -0.0978 |
| RRIRTRPPRLPRPRPRPARWPRP | 0.471 |

| Sequence | shrunken log2 fold change |
| --- | --- |
| RRIRNRPPRLPRPRPRPGRYPRP | 0.00112 |
| RRIRDRPPRLPRPRPRPIRFPRP | -0.0156 |
| RRIRGRPPRLPRPRPRPRFPPRP | 0.412 |
| RRIRCRPPRLPRPRPRPHLYPRP | 1.42 |
| RRIRQRPPRLPRPRPRPQMHPRP | -0.168 |
| RRIRCRPPRLPRPRPRPQFQPRP | -0.606 |
| RRIRARPPRLPRPRPRPVAIPRP | 0.111 |
| RRIRHRPPRLPRPRPRPQMIPRP | -0.139 |
| RRIRIRPPRLPRPRPRPMGRPRP | 0.126 |
| RRIRHRPPRLPRPRPRPWIFPRP | -0.332 |
| RRIRNRPPRLPRPRPRPFPLPRP | -0.0286 |
| RRIRVRPPRLPRPRPRPQMNPRP | -0.0919 |
| RRIRGRPPRLPRPRPRPILEPRP | 0.229 |
| RRIRCRPPRLPRPRPRPNNPPRP | -0.681 |
| RRIRSRPPRLPRPRPRPIEKPRP | -0.0173 |
| RRIRWRPPRLPRPRPRPYNKPRP | -1.34 |
| RRIRCRPPRLPRPRPRPKGMPRP | -0.148 |
| RRIRRRPPRLPRPRPRPDNVPRP | -0.211 |
| RRIRRRPPRLPRPRPRPHAVPRP | 0.251 |
| RRIRHRPPRLPRPRPRPSMQPRP | -0.124 |
| RRIRARPPRLPRPRPRPYTGPRP | -0.645 |
| RRIRLRPPRLPRPRPRPPRIPRP | 0.0531 |
| RRIRERPPRLPRPRPRPQVNPRP | -0.129 |
| RRIRCRPPRLPRPRPRPDTAPRP | -0.051 |
| RRIRIRPPRLPRPRPRPMVWPRP | 0.0906 |

| Sequence | shrunken log2 fold change |
| --- | --- |
| RRIRMRPPRLPRPRPRPRWFPRP | 0.717 |
| RRIRMRPPRLPRPRPRPKVQPRP | 1.85 |
| RRIRLRPPRLPRPRPRPFKMPRP | -0.388 |
| RRIRVRPPRLPRPRPRPMFGPRP | 0.00478 |
| RRIRFRPPRLPRPRPRPANKPRP | -0.546 |
| RRIRCRPPRLPRPRPRPRFFPRP | 0.191 |
| RRIRPRPPRLPRPRPRPNSTPRP | -0.23 |
| RRIRSRPPRLPRPRPRPFFMPRP | -0.288 |
| RRIRPRPPRLPRPRPRPMIGPRP | 0.00964 |
| RRIRVRPPRLPRPRPRPFRSPRP | -0.267 |
| RRIRYRPPRLPRPRPRPNLCPRP | -1.35 |
| RRIRFRPPRLPRPRPRPILWPRP | -0.0429 |
| RRIRPRPPRLPRPRPRPLYHPRP | -0.514 |
| RRIRSRPPRLPRPRPRPYHDPRP | -0.174 |
| RRIRQRPPRLPRPRPRPPFEPRP | 0.333 |
| RRIRKRPPRLPRPRPRPDRFPRP | -0.0614 |
| RRIRIRPPRLPRPRPRPEEGPRP | -0.05 |
| RRIRYRPPRLPRPRPRPYIKPRP | -1.3 |
| RRIRDRPPRLPRPRPRPWHYPRP | -0.225 |
| RRIRFRPPRLPRPRPRPLPVPRP | 0.142 |
| RRIRKRPPRLPRPRPRPKKNPRP | 0.555 |
| RRIRWRPPRLPRPRPRPQTRPRP | 0.122 |
| RRIRERPPRLPRPRPRPVGMPRP | -0.0934 |
| RRIRARPPRLPRPRPRPFHPPRP | -0.178 |
| RRIRRRPPRLPRPRPRPMEHPRP | 0.131 |

| Sequence | shrunken log2 fold change |
| --- | --- |
| RRIRLRPPRLPRPRPRPHHHPRP | -0.6 |
| RRIRWRPPRLPRPRPRPCFKPRP | 0.0478 |
| RRIRLRPPRLPRPRPRPCEKPRP | -0.00674 |
| RRIRYRPPRLPRPRPRPFEIPRP | -0.17 |
| RRIRSRPPRLPRPRPRPEQLPRP | -0.0808 |
| RRIRKRPPRLPRPRPRPSWCPRP | -0.152 |
| RRIRYRPPRLPRPRPRPISDPRP | -0.237 |
| RRIRTRPPRLPRPRPRPAGCPRP | 0.316 |
| RRIRRRPPRLPRPRPRPVSCPRP | -0.121 |
| RRIRERPPRLPRPRPRPCKYPRP | 3.12 |
| RRIRPRPPRLPRPRPRPCSCPRP | -0.516 |
| RRIRERPPRLPRPRPRPMTHPRP | -0.0346 |
| RRIRGRPPRLPRPRPRPMGTPRP | 0.48 |
| RRIRGRPPRLPRPRPRPVKQPRP | 0.216 |
| RRIRGRPPRLPRPRPRPRCWPRP | 1.19 |
| RRIRCRPPRLPRPRPRPCRSPRP | 0.118 |
| RRIRHRPPRLPRPRPRPLKAPRP | -0.364 |
| RRIRPRPPRLPRPRPRPNPLPRP | 0.149 |
| RRIRHRPPRLPRPRPRPWQYPRP | -0.17 |
| RRIRCRPPRLPRPRPRPLATPRP | 0.146 |
| RRIRGRPPRLPRPRPRPVVNPRP | 0.0184 |
| RRIRLRPPRLPRPRPRPFCNPRP | -0.245 |
| RRIRDRPPRLPRPRPRPDVYPRP | -0.00822 |
| RRIRYRPPRLPRPRPRPHTAPRP | -0.57 |
| RRIRMRPPRLPRPRPRPPDMPRP | 1.06 |
